Experimental data: patent KR20240007815A (dated 2024)
One block for each molecule: values may come before it.

Columns and labels:
[1] = target: 인간 BDCA-2 (Blood dendritic cell antigen 2, CLEC4C) (human) (UniProt Q8WTT0); assay: flow cytometry, double staining of human PBMC with anti-CD123 and anti-BDCA-2
[2] = target: 인간 BDCA-2 (Blood dendritic cell antigen 2, CLEC4C) (human) (UniProt Q8WTT0); assay: flow cytometry, double staining of human PBMC with anti-CD123 and 201A
[3] = target: T1, 인간 BDCA-2 (Blood dendritic cell antigen 2, CLEC4C) (human, UniProt Q8WTT0 1-213); assay: flow cytometry on 293 cells expressing human BDCA-2, anti-human IgG-APC secondary
T1 construct: whole, on cells; also called human BDCA-2
T1 sequence (looked up): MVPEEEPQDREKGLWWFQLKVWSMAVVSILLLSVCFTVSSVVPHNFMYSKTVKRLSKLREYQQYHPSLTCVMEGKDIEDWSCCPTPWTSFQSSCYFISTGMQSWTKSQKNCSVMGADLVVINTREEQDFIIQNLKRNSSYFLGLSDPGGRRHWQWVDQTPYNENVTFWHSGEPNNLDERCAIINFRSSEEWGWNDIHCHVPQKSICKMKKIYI

% CD123+ BDCA-2+ 세포 (donor-1 PBMC) [1]: 0.51%
% CD123+ BDCA-2+ 세포 (donor-2 PBMC) [1]: 0.15%
Molecule: anti-BDCA-2 (AC144, Miltenyi) (antibody)

% CD123+ BDCA-2+ 세포 (donor-1 PBMC) [2]: 0.65%
% CD123+ BDCA-2+ 세포 (donor-2 PBMC) [2]: 0.16%
B1: 인간 BDCA-2에 결합하는 마우스 단일클론 항체 201A (antibody, mouse IgG2a, kappa, V domains shown)
VH: DVKLVESGGGLVKPGGSLNLSCAASGFTFSSYTMSWVRQNPEKRLEWVATISSGGSYTYYPDSVKGRFTISRDNAKNTLYLQMSSLKSEDTAMYYCTRDRGDYDYDEGYYFDYWGQGTTLTVSS
VL: NIVLTQSPASLAVSLGQRATISCRASASVDSYGNSFMHWYQQKPGQPPKLLIYLASNLESGVPARFSGSGSRTDFTLTIDPVEADDAATYYCQQNNEDPRTFGGGTKLEIKR

binding result [3]: binds
B2: 201A 인간화 항체 201H (antibody, human IgG1, kappa, V domains shown)
VH: EVQLVESGGGLVKPGGSLRLSCAASGFTFSSYTMSWVRQAPGKGLEWVATISSGGSYTYYPDSVKGRFTISRDNAKNSLYLQMNSLRAEDTAVYYCTRDRGDYDYDEGYYFDYWGQGTLVTVSS
VL: DIVLTQSPASLAVSPGQRATITCRASASVDSYGNSFMHWYQQKPGQPPKLLIYLASNLESGVPARFSGSGSRTDFTLTINPVEANDTANYYCQQNNEDPRTFGGGTKVEIKR
notes: Humanised antibody made in Expi293 cells, purified on protein G; detected with anti-human IgG Fc

binding result [3]: binds
B3: 201A 키메라 항체 201C (antibody, human IgG1, kappa, V domains shown)
VH: DVKLVESGGGLVKPGGSLNLSCAASGFTFSSYTMSWVRQNPEKRLEWVATISSGGSYTYYPDSVKGRFTISRDNAKNTLYLQMSSLKSEDTAMYYCTRDRGDYDYDEGYYFDYWGQGTTLTVSS
VL: NIVLTQSPASLAVSLGQRATISCRASASVDSYGNSFMHWYQQKPGQPPKLLIYLASNLESGVPARFSGSGSRTDFTLTIDPVEADDAATYYCQQNNEDPRTFGGGTKLEIKR
notes: Chimeric antibody made in Expi293 cells, purified on protein G; detected with anti-human IgG Fc
